In experiment [1] the target is VH2VL1-CD8ATD-CD137CSD-CD3zSSD fusion.
For experiment [2], the target named is VL1VH3-CD8ATD-CD137CSD-CD3zSSD fusion.
Experiment [3] concerns the target VH3VL1-CD8ATD-CD137CSD-CD3zSSD fusion.
Experiment [4] addresses VH1VL1-CD8ATD-CD137CSD-CD3zSSD fusion.

VL1VH3-CD8ATD-CD137CSD-CD3zSSD fusion, sequence (chain, as listed by the source): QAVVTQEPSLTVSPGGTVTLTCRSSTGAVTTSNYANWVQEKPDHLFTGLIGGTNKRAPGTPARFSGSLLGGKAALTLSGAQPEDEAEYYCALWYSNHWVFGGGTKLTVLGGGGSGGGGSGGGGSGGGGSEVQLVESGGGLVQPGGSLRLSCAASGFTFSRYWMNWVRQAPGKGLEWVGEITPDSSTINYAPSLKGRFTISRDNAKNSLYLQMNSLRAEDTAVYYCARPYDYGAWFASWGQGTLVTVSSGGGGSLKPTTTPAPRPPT
VH3VL1-CD8ATD-CD137CSD-CD3zSSD fusion, sequence (chain, as listed by the source): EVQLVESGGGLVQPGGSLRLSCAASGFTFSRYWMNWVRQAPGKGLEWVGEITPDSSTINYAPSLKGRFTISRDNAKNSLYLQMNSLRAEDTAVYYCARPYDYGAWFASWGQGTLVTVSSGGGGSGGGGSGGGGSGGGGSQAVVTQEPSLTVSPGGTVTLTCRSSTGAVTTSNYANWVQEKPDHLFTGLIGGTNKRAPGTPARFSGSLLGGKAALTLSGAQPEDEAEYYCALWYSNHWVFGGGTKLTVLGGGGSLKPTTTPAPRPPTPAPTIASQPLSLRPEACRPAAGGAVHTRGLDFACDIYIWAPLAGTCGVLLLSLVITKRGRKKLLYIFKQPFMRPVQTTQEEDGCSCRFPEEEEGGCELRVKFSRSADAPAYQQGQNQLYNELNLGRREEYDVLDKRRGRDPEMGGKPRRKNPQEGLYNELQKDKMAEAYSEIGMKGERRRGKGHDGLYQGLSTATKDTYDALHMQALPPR
VH1VL1-CD8ATD-CD137CSD-CD3zSSD fusion, sequence (chain, as listed by the source): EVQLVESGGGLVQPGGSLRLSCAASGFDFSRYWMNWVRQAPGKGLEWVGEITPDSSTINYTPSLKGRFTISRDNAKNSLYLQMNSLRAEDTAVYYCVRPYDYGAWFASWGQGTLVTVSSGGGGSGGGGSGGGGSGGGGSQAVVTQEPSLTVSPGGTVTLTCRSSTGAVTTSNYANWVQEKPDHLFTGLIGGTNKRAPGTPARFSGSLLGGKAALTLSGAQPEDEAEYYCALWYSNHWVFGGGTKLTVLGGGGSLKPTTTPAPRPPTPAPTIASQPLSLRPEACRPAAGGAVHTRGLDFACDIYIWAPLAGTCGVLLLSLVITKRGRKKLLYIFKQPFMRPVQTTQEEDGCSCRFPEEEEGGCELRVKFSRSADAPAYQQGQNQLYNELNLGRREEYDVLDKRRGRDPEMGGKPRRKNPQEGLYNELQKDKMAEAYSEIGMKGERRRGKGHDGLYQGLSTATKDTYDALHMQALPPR
VH2VL1-CD8ATD-CD137CSD-CD3zSSD fusion, sequence (chain, as listed by the source): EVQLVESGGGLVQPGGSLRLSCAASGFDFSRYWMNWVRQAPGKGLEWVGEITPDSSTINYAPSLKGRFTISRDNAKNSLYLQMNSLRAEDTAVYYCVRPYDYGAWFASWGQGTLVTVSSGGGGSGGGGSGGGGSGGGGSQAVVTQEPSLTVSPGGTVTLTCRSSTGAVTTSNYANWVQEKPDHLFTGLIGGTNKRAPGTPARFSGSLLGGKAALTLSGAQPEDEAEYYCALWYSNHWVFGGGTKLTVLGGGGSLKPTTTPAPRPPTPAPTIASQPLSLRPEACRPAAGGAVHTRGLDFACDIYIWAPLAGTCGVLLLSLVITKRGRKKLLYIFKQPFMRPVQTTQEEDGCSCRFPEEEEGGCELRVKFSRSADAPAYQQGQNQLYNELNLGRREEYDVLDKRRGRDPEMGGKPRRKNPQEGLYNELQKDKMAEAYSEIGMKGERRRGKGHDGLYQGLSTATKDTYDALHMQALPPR

The substance “anti-CD20 (GA101) D246A P329G IgG1 (antibody)” showed an EC50 of NFAT-luciferase activation of anti-P329G CAR Jurkat cells, WSUDLCL2 target cells (5:1); table row VH2 x VL1 in experiment [1] of 10.4 pM. For the same substance, the EC50 of NFAT-luciferase activation of anti-P329G CAR Jurkat cells, WSUDLCL2 target cells (5:1); VL1 x VH 3 in experiment [2] came out at 6.19 pM. This substance also yielded an EC50 of NFAT-luciferase activation of anti-P329G CAR Jurkat cells, WSUDLCL2 target cells (5:1); VH3 x VL1 in experiment [3] of 5.82 pM. The EC50 of NFAT-luciferase activation of anti-P329G CAR Jurkat cells, WSUDLCL2 target cells (5:1); VH1 x VL1 in experiment [4] came to 8.14 pM.

For the origin of these results see patent US20240269176A1.
